{"source": "paper PMC6021111", "about": "“Murine leukemia virus p12 tethers the capsid-containing pre-integration complex to chromatin by binding directly to host nucleosomes in mitosis” (PLoS Pathogens, 2018)", "key": {"[1]": {"biological_target": "partner chain of the complex shown [chain 1 S65A R66A L67A R68A G69A]", "experiment": "SILAC-MS of GST pull-down", "settings": "mitotic 293T cell lysates"}, "[2]": {"biological_target": "C-terminally His-tagged N-MLV CA WT (N-tropic murine leukaemia virus (N-MLV))", "sequence (P03336 215-477 limits assumed)": "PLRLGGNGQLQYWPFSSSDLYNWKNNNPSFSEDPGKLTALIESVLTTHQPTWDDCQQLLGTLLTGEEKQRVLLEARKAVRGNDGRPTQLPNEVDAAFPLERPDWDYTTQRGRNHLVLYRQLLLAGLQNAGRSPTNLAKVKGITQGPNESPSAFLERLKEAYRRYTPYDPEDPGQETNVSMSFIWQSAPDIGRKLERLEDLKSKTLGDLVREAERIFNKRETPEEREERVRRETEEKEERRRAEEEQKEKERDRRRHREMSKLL", "experiment": "co-sedimentation"}, "[3]": {"biological_target": "GST-tagged Mo-MLV p12_M63I with S61D (Moloney murine leukaemia virus (Mo-MLV))", "experiment": "pull-down"}, "[4]": {"biological_target": "GST-tagged FeLV p12 I52M (feline leukaemia virus (FeLV))", "experiment": "pull-down"}, "[5]": {"biological_target": "GST-tagged Mo-MLV p12_M63I with S61A (Moloney murine leukaemia virus (Mo-MLV))", "experiment": "pull-down"}, "[6]": {"biological_target": "GST-tagged Mo-MLV p12_M63I (Moloney murine leukaemia virus (Mo-MLV))", "experiment": "pull-down"}, "[7]": {"biological_target": "GST-tagged FeLV p12 A53V (feline leukaemia virus (FeLV))", "experiment": "pull-down"}, "[8]": {"biological_target": "GST-tagged Mo-MLV p12_M63I with S61E (Moloney murine leukaemia virus (Mo-MLV))", "experiment": "pull-down"}, "[9]": {"tested_on": "hCBS soluble competitor peptide (prototypic foamy virus (PFV))", "experiment": "competition", "settings": "scale: fold decrease of nucleosome binding to immobilised hCBS"}}, "data": [{"substance": "", "values": [{"measurement": "screen value (SDs from the mean)", "setting": "[1]; replicate R1", "result": 1.1}, {"measurement": "screen value (SDs from the mean)", "setting": "[1]; replicate R2", "result": 2.1}]}, {"substance": "N-MLV p12_WT (purified, untagged) (natural protein)", "values": [{"measurement": "amount of p12 pelleted by the CA-nanotubes (67 pmol CA loaded)", "setting": "[2]", "result": 11.2, "unit": "pmol"}, {"measurement": "stoichiometry N (p12 per CA (1:6))", "setting": "[2]", "result": 0.167}]}, {"substance": "histone H2B (from UniProt P62807 1-126) (natural protein)", "values": [{"measurement": "fold reduction in histone pull down against GST-p12 M63I", "setting": "[3]", "result": 6, "unit": "fold"}, {"measurement": "fold difference in histone precipitation against the WT FeLV p12", "setting": "[4]", "result": "< 2", "unit": "fold"}, {"measurement": "fold reduction in histone pull down against GST-p12 M63I", "setting": "[5]", "result": 3, "unit": "fold"}, {"measurement": "fold more histones pulled down from mitotic than from interphase cell lysates", "setting": "[6]", "result": 4, "unit": "fold"}, {"measurement": "fold reduction of H2B precipitation after kenpaullone", "setting": "[6]", "result": 3.5, "unit": "fold"}, {"measurement": "fold reduction of H2B precipitation after roscovitine", "setting": "[6]", "result": 1.5, "unit": "fold"}, {"measurement": "fold difference in histone precipitation against the WT FeLV p12", "setting": "[7]", "result": "< 2", "unit": "fold"}, {"measurement": "fold reduction in histone pull down against GST-p12 M63I", "setting": "[8]", "result": 1.5, "unit": "fold"}]}, {"substance": "recombinant H3.3 poly-nucleosomes", "values": [{"measurement": "binding signal", "setting": "[9]", "result": 10}]}]}
